This passage reports ratio to parent results from paper PMC5850324, “Interactions between the Hepatitis C Virus Nonstructural 2 Protein and Host Adaptor Proteins 1 and 4 Orchestrate Virus Release” (mBio, 2018).

Sequences and labels used below:
B1: GLuc2-NS2 (hepatitis C virus nonstructural 2 protein, wild type) [hepatitis C virus (J6/JFH genome)] / GLuc1-tagged μ subunit of the AP-1A complex [not stated] (parent)
chain 1: YDASVHGQIGAALLVLITLFTLTPGYKTLLSRFLWWLCYLLTLAEAMVQEWAPPMQVRGGRDGIIWAVAIFCPGVVFDITKWLLAVLGPAYLLKGALTRVPYFVRAHALLRMCTMVRHLAGGRYVQMVLLALGRWTGTYIYDHLTPMSDWAANGLRDLAVAVEPIIFSPMEKKVIVWGAETAACGDILHGLPVSARLGREVLLGPADGYTSKGWSLL
chain 2: MSASAVYVLDLKGKVLICRNYRGDVDMSEVEHFMPILMEKEEEGMLSPILAHGGVRFMWIKHNNLYLVATSKKNACVSLVFSFLYKVVQVFSEYFKELEEESIRDNFVIIYELLDELMDFGYPQTTDSKILQEYITQEGHKLETGAPRPPATVTNAVSWRSEGIKYRKNEVFLDVIESVNLLVSANGNVLRSEIVGSIKMRVFLSGMPELRLGLNDKVLFDNTGRGKSKSVELEDVKFHQCVRLSRFENDRTISFIPPDGEFELMSYRLNTHVKPLIWIESVIEKHSHSRIEYMIKAKSQFKRRSTANNVEIHIPVPNDADSPKFKTTVGSVKWVPENSEIVWSIKSFPGGKEYLMRAHFGLPSVEAEDKEGKPPISVKFEIPYFTTSGIQVRYLKIIEKSGYQALPWVRYITQNGDYQLRTQ
B2: GLuc2-NS2 (hepatitis C virus nonstructural 2 protein, wild type) [hepatitis C virus (J6/JFH genome)] / GLuc1-tagged μ subunit of the AP-1B complex [not stated] (parent)
chain 1: B1 chain 1
chain 2: MSASAVFILDVKGKPLISRNYKGDVAMSKIEHFMPLLVQREEEGALAPLLSHGQVHFLWIKHSNLYLVATTSKNANASLVYSFLYKTIEVFCEYFKELEEESIRDNFVIVYELLDELMDFGFPQTTDSKILQEYITQQSNKLETGKSRVPPTVTNAVSWRSEGIKYKKNEVFIDVIESVNLLVNANGSVLLSEIVGTIKLKVFLSGMPELRLGLNDRVLFELTGRSKNKSVELEDVKFHQCVRLSRFDNDRTISFIPPDGDFELMSYRLSTQVKPLIWIESVIEKFSHSRVEIMVKAKGQFKKQSVANGVEISVPVPSDADSPRFKTSVGSAKYVPERNVVIWSIKSFPGGKEYLMRAHFGLPSVEKEEVEGRPPIGVKFEIPYFTVSGIQVRYMKIIEKSGYQALPWVRYITQSGDYQLRTS

In the first assay the parent is B1. Nature of the assay: PCA (protein-fragment complementation assay). The settings on record: with GLuc1-tagged μ subunit of the AP-1A complex; parent: 1; read off a plot.
For chain 1 L202A L217A, the ratio to parent came to 0.38.

As to chain 1 L217A, the ratio to parent came to 0.68. Consider chain 1 E200A, for which the ratio to parent worked out at 1. For chain 1 L216A, the ratio to parent was 0.56. As to chain 1 L202A L203A L216A L217A, the ratio to parent was determined as 0.33. Still for that read-out and setting: with chain 1 L203A the figure was 0.67.

Consider chain 1 L202A, for which the ratio to parent is 0.71. The same measure, in the same setting: with chain 1 D207A the figure was 0.74.

Variants of B2 are the subject of a further assay. Kind of assay: PCA (protein-fragment complementation assay). The note with it: with GLuc1-tagged μ subunit of the AP-1B complex; parent: 1; read off a plot.
Regarding chain 1 E200A, the ratio to parent worked out at 0.97. In the case of chain 1 L217A, the ratio to parent is 0.76.

As to chain 1 L202A L217A, the ratio to parent was 0.55.

Consider chain 1 L202A, for which the ratio to parent is 0.8.

Turning to chain 1 L202A L203A L216A L217A, the ratio to parent worked out at 0.47.

Consider chain 1 L203A, for which the ratio to parent turned out to be 0.67. As for chain 1 D207A, the ratio to parent is 0.79. On the same count and under the same terms, with chain 1 L216A the figure was 0.77.
